Test results published in the supplement of paper PMC9732359.
± gives the uncertainty stated by the source.

Assay: protein stability index of a GFP-peptide fusion (yeast GPS) (PSI 1-4); higher = more stable; sorted into four equal gates, so the index is relative within each strain
In short: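 The protein stability index combines read frequencies across sorting gates, each weighted by its gate number and then summed. To obtain those frequencies, a pooled yeast library of GFP fusions to tiled 17-residue yeast protein peptides, on a plasmid also expressing Cherry, was grown to mid-log phase in leucine-free medium. The cells were sorted into four equal gates by GFP/Cherry ratio before plasmid amplification by PCR and Illumina sequencing.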

Sequence	protein stability index (doa10∆)	protein stability index (pdr5∆)	protein stability index (san1∆)	protein stability index (ubr1∆)
RDIEKITSLYALIRRDF [CDC53]	2.1 ± 0.035	1.89 ± 0.03	1.84 ± 0.05	1.75 ± 0.021
DANLNDLPETGFFENIE [IRR1]	3.13 ± 0.2	3.24 ± 0.13	3.35 ± 0.1	3.27 ± 0.12
DWEDEEKYEDEDEEKIL [DSN1]	3.28 ± 0.11	2.94 ± 0.16	3.26 ± 0.24	3.25 ± 0.15
NYGIVELDPECQLQNSD [RRP43]	2.96 ± 0.075	3.01 ± 0.062	2.93 ± 0.054	3.02 ± 0.078
KPQLKFKSPIDNSESHP [RRP6]	2.77 ± 0.083	3.06 ± 0.06	2.89 ± 0.084	3.12 ± 0.034
APPQRPRFNRDNKVSPA [RPS26B]	2.79 ± 0.1	2.45 ± 0.11	3.09 ± 0.14	–
ATVVSTNHSAAASTPTT [PGD1]	2.91 ± 0.047	3.12 ± 0.042	2.98 ± 0.035	3 ± 0.037
AETQGSKVVIDSIIDNI [IRR1]	2.79 ± 0.098	3.26 ± 0.07	3.08 ± 0.12	2.99 ± 0.039
FNNQGKLDLFKYFTELS [MED1]	3.07 ± 0.092	2.83 ± 0.072	2.92 ± 0.056	2.88 ± 0.092
LAVSTILGKNFDSVIVE [SMC1]	2.86 ± 0.066	2.59 ± 0.064	2.44 ± 0.056	2.45 ± 0.047
CTKLAVYYSKRGFKVGL [SRP54]	2.57 ± 0.14	2.73 ± 0.13	2.23 ± 0.099	2.54 ± 0.06
QPSYNSAIIENAFRKEE [GAL11]	2.86 ± 0.086	2.68 ± 0.091	2.74 ± 0.077	2.76 ± 0.055
LWLKKVMEEEEQDCKCI [POP8]	2.63 ± 0.077	2.7 ± 0.068	3.05 ± 0.078	2.99 ± 0.051
LLWLVLIHPENFTCNRK [SWI1]	1.9 ± 0.056	1.92 ± 0.063	2.38 ± 0.064	2.96 ± 0.074
AKKKVLDVTKEAQANLL [RPO21]	2.41 ± 0.17	2.73 ± 0.11	–	2.84 ± 0.14
SWVQPRIISGDQITKMK [RPN9]	3.76 ± 0.26	3.27 ± 0.12	2.94 ± 0.14	3.56 ± 0.2
GEITFDGIGGLTEQIRE [RPT4]	3.34 ± 0.12	3.45 ± 0.099	3.21 ± 0.093	3.54 ± 0.062
GALDVEGLCIVAGSKCW [RRP45]	2.83 ± 0.12	2.96 ± 0.11	2.87 ± 0.077	2.9 ± 0.13
DGTSTEKTFLHLPCTIE [RPN8]	2.7 ± 0.1	1.78 ± 0.055	2.1 ± 0.065	1.41 ± 0.044
DVKLLNPIDIKRRFGEL [RPP1]	2.46 ± 0.089	2.7 ± 0.078	2.38 ± 0.14	2.97 ± 0.047
PKNKLVPTLEAKRDYII [FAS1]	1.71 ± 0.071	1.59 ± 0.1	2.63 ± 0.098	2.15 ± 0.11
QNMQQSLQQMQHLQQLK [GAL11]	2.96 ± 0.095	2.95 ± 0.07	2.94 ± 0.074	2.89 ± 0.098
SSLKESSPDTMKLTDLL [SNF12]	3.09 ± 0.088	3.08 ± 0.083	2.71 ± 0.098	3.1 ± 0.076
AEEAIVNAMRVLYYRDA [PRE4]	–	3.33 ± 0.17	2.73 ± 0.2	–
MSGYDRALSIFSPDGHI [PRE6]	2.82 ± 0.12	2.38 ± 0.14	2.76 ± 0.09	2.69 ± 0.077
SECIVSIKSKVVDHHVE [RRP42]	3.04 ± 0.066	3.08 ± 0.08	2.71 ± 0.14	3.04 ± 0.067
EEQDVDMTGDEEQEEEP [RPC19]	–	–	–	2.76 ± 0.28
